Starred links: 1 amine or outer side, 2 acyl side, 3 side chain; linkers in the order of their positions; H or OH if unused. Positions of bridges follow the written chain, without caps; N, C: chain ends. Non-standard residues stand in square brackets, D forms with d. Primed or numbered codes have the meaning given here. B5(15) = 2-amino-2-(pent-4-en-1-yl)hept-6-enoic acid (2,2-bis(4-pentenyl)glycine), stitching residue bearing two staples, C=CCCCC(CCCC=C)(N[*:1])C(=O)[*:2]; PyrS2″ = (S)-3-amino-1-((pent-4-en-1-yloxy)carbonyl)pyrrolidine-3-carboxylic acid (stapling residue), C=CCCCOC(=O)N1CC[C@@](N[*:1])(C(=O)[*:2])C1; B5(18) = 2,2-bis(4-pentenyl)glycine (2-amino-2-(pent-4-en-1-yl)hept-6-enoic acid), stitching residue, C=CCCCC(CCCC=C)(N[*:1])C(=O)[*:2]; B5(23) = 2-amino-2-(pent-4-en-1-yl)hept-6-enoic acid (2,2-bis(4-pentenyl)glycine), stitching residue, C=CCCCC(CCCC=C)(N[*:1])C(=O)[*:2]; B5(4) = 2,2-bis(4-pentenyl)glycine = 2-amino-2-(pent-4-en-1-yl)hept-6-enoic acid (stitching residue), C=CCCCC(CCCC=C)(N[*:1])C(=O)[*:2]; B5(5) = 2,2-bis(4-pentenyl)glycine, 2-amino-2-(pent-4-en-1-yl)hept-6-enoic acid (stitching residue), C=CCCCC(CCCC=C)(N[*:1])C(=O)[*:2]; B5(21) = 2-amino-2-(pent-4-en-1-yl)hept-6-enoic acid, bis(4-pentenyl)glycine (stitching residue), C=CCCCC(CCCC=C)(N[*:1])C(=O)[*:2]; TfeGA = (S)-2-amino-3-((carboxymethyl)(2,2,2-trifluoroethyl)amino)propanoic acid, O=C([C@H](CN(CC(=O)[*:3])CC(F)(F)F)N[*:1])[*:2]; PyrS2 = (S)-3-amino-1-((pent-4-en-1-yloxy)carbonyl)pyrrolidine-3-carboxylic acid, C=CCCCOC(=O)N1CC[C@@](N[*:1])(C(=O)[*:2])C1; B5(25) = 2-amino-2-(pent-4-en-1-yl)hept-6-enoic acid (stitching residue), C=CCCCC(CCCC=C)(N[*:1])C(=O)[*:2]; EtGA = (S)-2-amino-3-((carboxymethyl)(ethyl)amino)propanoic acid, CCN(CC(=O)[*:3])C[C@H](N[*:1])C(=O)[*:2]; B5(3) = 2,2-bis(4-pentenyl)glycine (stitching residue), C=CCCCC(CCCC=C)(N[*:1])C(=O)[*:2]; B5 = 2-amino-2-(pent-4-en-1-yl)hept-6-enoic acid, C=CCCCC(CCCC=C)(N[*:1])C(=O)[*:2]; Phe(2-Cl) = N[C@@H](Cc1ccccc1Cl)C(=O)O; Bta = N[C@@H](Cc1csc2ccccc12)C(=O)O; αAllylPro = C=CC[C@@]1(C(=O)O)CCCN1; tBuAla = CC(C)(C)C[C@H](N)C(=O)O; 2Thi = N[C@@H](Cc1cccs1)C(=O)O; 3Thi = N[C@@H](Cc1ccsc1)C(=O)O; Cha = N[C@@H](CC1CCCCC1)C(=O)O; S8 = C=CCCCCCC[C@](C)(N)C(=O)O; hLeu = CC(C)CC[C@H](N)C(=O)O; hSer = N[C@@H](CCO)C(=O)O; Aib = CC(C)(N)C(=O)O
Legend:
[1] = biological target: full-length beta-Catenin (Uniprot ID P35222) (Homo sapiens (Human)) (UniProt P35222); assay: fluorescence polarization competition; full-length beta-catenin, competitor 5FAM-TCF4(10-53) probe
[2] = biological target: full-length beta-Catenin (Uniprot ID P35222) (Homo sapiens (Human)) (UniProt P35222); assay: fluorescence polarization competition; full-length beta-catenin; competitor 5FAM-TCF4(10-53) probe
Target sequence in this assay (P35222 whole entry, one chain of several): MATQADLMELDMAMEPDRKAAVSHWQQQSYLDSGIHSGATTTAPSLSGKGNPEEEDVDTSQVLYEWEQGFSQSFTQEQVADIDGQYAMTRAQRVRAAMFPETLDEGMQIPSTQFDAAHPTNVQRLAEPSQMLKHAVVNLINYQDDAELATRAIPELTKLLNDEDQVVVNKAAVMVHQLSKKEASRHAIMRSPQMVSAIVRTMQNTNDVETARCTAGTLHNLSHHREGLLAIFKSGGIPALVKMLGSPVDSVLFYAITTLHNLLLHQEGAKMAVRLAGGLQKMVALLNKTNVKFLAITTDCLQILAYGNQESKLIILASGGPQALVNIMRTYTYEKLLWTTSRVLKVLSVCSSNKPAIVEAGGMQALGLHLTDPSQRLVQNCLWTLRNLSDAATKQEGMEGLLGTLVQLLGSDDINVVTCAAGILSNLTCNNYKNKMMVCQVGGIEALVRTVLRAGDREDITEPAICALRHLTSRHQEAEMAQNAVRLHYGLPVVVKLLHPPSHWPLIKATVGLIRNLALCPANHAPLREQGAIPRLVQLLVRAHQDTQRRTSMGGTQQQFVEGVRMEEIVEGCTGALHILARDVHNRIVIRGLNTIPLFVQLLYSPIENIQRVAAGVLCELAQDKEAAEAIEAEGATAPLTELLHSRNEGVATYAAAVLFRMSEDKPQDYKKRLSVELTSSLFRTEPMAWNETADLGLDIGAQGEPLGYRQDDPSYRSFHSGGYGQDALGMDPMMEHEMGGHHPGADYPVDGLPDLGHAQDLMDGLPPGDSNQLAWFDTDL

[3] = biological target: beta-catenin (Homo sapiens (Human)) (UniProt P35222); assay: fluorescence polarization competition; full-length beta-catenin with 5FAM-TCF4(10-53) probe as competitor
beta-catenin (Homo sapiens (Human)), sequence (P35222 whole entry): as the sequence (P35222 whole entry, one chain of several) above

[4] = biological target: full-length beta-Catenin (Uniprot ID P35222) (Homo sapiens (Human)) (UniProt P35222); assay: fluorescence polarization competition: peptide titrated against 10 nM full-length beta-catenin + 10 nM 5FAM-TCF4(10-53) probe
Target sequence in this assay (P35222 2-781 limits assumed): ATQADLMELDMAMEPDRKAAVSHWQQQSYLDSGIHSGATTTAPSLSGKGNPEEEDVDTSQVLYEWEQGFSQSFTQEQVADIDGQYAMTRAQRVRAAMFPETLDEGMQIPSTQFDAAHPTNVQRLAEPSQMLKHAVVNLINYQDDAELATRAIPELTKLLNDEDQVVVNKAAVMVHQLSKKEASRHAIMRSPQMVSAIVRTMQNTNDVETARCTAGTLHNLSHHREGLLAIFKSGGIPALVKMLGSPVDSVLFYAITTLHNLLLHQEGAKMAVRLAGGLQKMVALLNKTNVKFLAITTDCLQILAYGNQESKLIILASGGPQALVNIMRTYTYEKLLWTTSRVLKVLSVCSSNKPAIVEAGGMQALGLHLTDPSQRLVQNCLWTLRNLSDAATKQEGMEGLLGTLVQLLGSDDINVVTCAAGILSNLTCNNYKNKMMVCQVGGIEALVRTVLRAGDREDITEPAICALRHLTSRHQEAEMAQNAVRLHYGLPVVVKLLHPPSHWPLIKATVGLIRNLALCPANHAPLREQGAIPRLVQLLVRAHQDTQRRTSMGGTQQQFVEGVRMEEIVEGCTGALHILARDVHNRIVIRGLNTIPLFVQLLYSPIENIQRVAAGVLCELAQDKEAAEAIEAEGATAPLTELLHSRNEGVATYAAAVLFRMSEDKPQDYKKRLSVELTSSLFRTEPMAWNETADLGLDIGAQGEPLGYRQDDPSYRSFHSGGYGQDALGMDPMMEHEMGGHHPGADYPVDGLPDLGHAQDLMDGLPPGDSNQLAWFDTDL

[5] = biological target: full-length beta-Catenin (Uniprot ID P35222) (Homo sapiens (Human)) (UniProt P35222); assay: fluorescence polarization competition; displaces 5FAM-TCF4(10-53) from full-length beta-catenin
Target sequence in this assay (P35222 2-781 limits assumed): as above

[6] = biological target: full-length beta-Catenin (Uniprot ID P35222) (Homo sapiens (Human)) (UniProt P35222); assay: fluorescence polarization competition; 10 nM full-length beta-catenin + 10 nM 5FAM-TCF4(10-53) probe
Target sequence in this assay (P35222 whole entry, one chain of several): as the sequence (P35222 whole entry, one chain of several) above

[7] = biological target: full-length beta-Catenin (Uniprot ID P35222) (Homo sapiens (Human)) (UniProt P35222); assay: fluorescence polarization competition vs 5FAM-TCF4(10-53) on full-length beta-catenin
Target sequence in this assay (P35222 2-781 limits assumed): as the sequence (P35222 2-781 limits assumed) above

[8] = biological target: full-length beta-Catenin (Uniprot ID P35222) (Homo sapiens (Human)) (UniProt P35222); assay: fluorescence polarization competition; full-length beta-catenin with 5FAM-labeled TCF4 (10-53) probe as competitor
Target sequence in this assay (P35222 whole entry, one chain of several): as the sequence (P35222 whole entry, one chain of several) above

[9] = biological target: full-length beta-Catenin (Uniprot ID P35222) (Homo sapiens (Human)) (UniProt P35222); assay: cell-based or functional assay
Target sequence in this assay (P35222 2-781 limits assumed): as the sequence (P35222 2-781 limits assumed) above

[10] = biological target: full-length beta-Catenin (Uniprot ID P35222) (Homo sapiens (Human)) (UniProt P35222); assay: fluorescence polarization competition; displacement of 5FAM-TCF4(10-53) from full-length beta-catenin
Target sequence in this assay (P35222 whole entry, one chain of several): as the sequence (P35222 whole entry, one chain of several) above

[11] = biological target: full-length beta-Catenin (Uniprot ID P35222) (Homo sapiens (Human)) (UniProt P35222); assay: fluorescence polarization competition; full-length beta-catenin with 5FAM-TCF4(10-53) probe as competitor
Target sequence in this assay (P35222 2-781 limits assumed): as the sequence (P35222 2-781 limits assumed) above

Row | IC50 [1] [nM] | EC50 [2] [nM] | Binder | further results
1 | 6560 | – | Ac-[αAllylPro]D[tBuAla][B5(4)]DLAAFL[PyrS2″][3Thi][Bta]Q-NH2 (staple 1-4, 4-11) [I-1444] | EC50 [3]: 6560 nM
2 | 15 | 15 | Ac-[αAllylPro]D[tBuAla][B5(4)]DTAAFT[PyrS2″][3Thi][Bta]S-NH2 (staple 1-4, 4-11) [I-1170] | –
3 | 159 | 159 | Ac-[αAllylPro]D[tBuAla][B5(21)]DTAAFL[PyrS2″][Phe(2-Cl)][Bta]Q-NH2 (staple 1-4, 4-11) [I-1169] | –
4 | 43 | 43 | Ac-[αAllylPro]D[Cha][B5(21)]DTAAFL[PyrS2″][3Thi][Bta]Q-NH2 (staple 1-4, 4-11) [I-1174] | –
5 | 25 | 25 | Ac-[αAllylPro]D[tBuAla][B5(4)]DD[Aib]AFL[PyrS2″][3Thi][Bta]Q-NH2 (staple 1-4, 4-11) [I-1177] | –
6 | 54.5 | 54.5 | Ac-[αAllylPro]D[tBuAla][B5(21)]DDA[Aib]FL[PyrS2″][3Thi][Bta]Q-NH2 (staple 1-4, 4-11) [I-1178] | –
7 | 24 | 24 | Ac-[αAllylPro]D[Cha][B5(21)]DTAAFT[PyrS2″][Phe(2-Cl)][Bta]Q-NH2 (staple 1-4, 4-11) [I-1175] | –
8 | 169 | 169 | Ac-[αAllylPro]D[Cha][B5(21)]DTAAFL[PyrS2″][Phe(2-Cl)][Bta]Q-NH2 (staple 1-4, 4-11) [I-1176] | –
9 | 70 | 70 | Ac-[αAllylPro]D[tBuAla][B5(21)]DTAAFL[PyrS2″][3Thi][Bta]S-NH2 (staple 1-4, 4-11) [I-1171] | –

The next lines start with the binder.

Row | Binder | IC50 [1] [nM] | EC50 [2] [nM] | further results
10 | Ac-[αAllylPro]D[Cha][B5(4)]DTAAFT[PyrS2″][3Thi][Bta]Q-NH2 (staple 1-4, 4-11) [I-1173] | 12 | 12 | –
11 | Ac-[αAllylPro]F[tBuAla][B5]DDAADN[PyrS2][3Thi][Bta]H-NH2 (staple 1-4, 4-11) [I-796] | – | – | EC50 [4]: 8140 nM
12 | Ac-[αAllylPro]D[tBuAla][B5(18)]DNAAFS[PyrS2″][Phe(2-Cl)][Bta]Q-NH2 (staple 1-4, 4-11) [I-1018] | – | – | EC50 [5]: 26 nM; IC50 [6]: 26 nM
13 | Ac-[αAllylPro]D[tBuAla][B5(5)]D[TfeGA]AIFN[PyrS2″][Phe(2-Cl)][Bta]Q-NH2 (staple 1-4, 4-11) [I-1005] | – | – | EC50 [5]: 42 nM; IC50 [6]: 42 nM
14 | Ac-[αAllylPro]D[tBuAla][B5(18)]DNAAFT[PyrS2″][Phe(2-Cl)][Bta]Q-NH2 (staple 1-4, 4-11) [I-1014] | – | – | EC50 [5]: 19 nM; IC50 [6]: 19 nM
15 | Ac-[αAllylPro]D[hLeu][B5(15)]DEAAF[hSer][S8]F[Bta]Q-NH2 (staple 1-4, 4-11; not fully specified; printed as Ac-PL3-Asp-Hleu-B5-Asp-Glu-Ala-Ala-Phe-Hse-S8-Phe-BztA-Gln-NH2) [I-1538] | – | – | IC50 [5]: 21 nM
16 | Ac-[αAllylPro]D[tBuAla][B5(4)]DTAAFT[PyrS2″][3Thi][Bta]Q-NH2 (staple 1-4, 4-11) [I-1166] | 14 | 14 | –
17 | Ac-[αAllylPro]D[hLeu][B5(15)]DEAAFL[S8]F[Bta]Q-NH2 (staple 1-4, 4-11) [I-1536] | – | – | IC50 [5]: 42 nM
18 | Ac-[αAllylPro]D[tBuAla][B5(25)]D[EtGA]AAFT[PyrS2″][3Thi][Bta]Q-NH2 (staple 1-4, 4-11; also: earlier-eluting HPLC staple isomer) [I-968] | – | – | IC50 [7]: 2980 nM; EC50 [8]: 2980 nM
19 | Ac-[αAllylPro]D[tBuAla][B5(21)]DTAAFT[PyrS2″][Phe(2-Cl)][Bta]Q-NH2 (staple 1-4, 4-11) [I-1168] | 25 | 25 | –
20 | Ac-[αAllylPro]D[tBuAla][B5(21)]DD[Aib][Aib]FL[PyrS2″][3Thi][Bta]Q-NH2 (staple 1-4, 4-11; also: earlier eluting HPLC peak (staple isomer composition)) [I-1179] | 346 | 346 | –
21 | Ac-[αAllylPro]D[tBuAla][B5(25)]D[EtGA]AAFS[PyrS2″][3Thi][Bta]Q-NH2 (staple 1-4, 4-11; also: earlier-eluting HPLC staple isomer) [I-966] | – | – | IC50 [7]: 2020 nM; EC50 [8]: 2020 nM
22 | Ac-[αAllylPro]D[tBuAla][B5(21)]DTAAFL[PyrS2″][Phe(2-Cl)][Bta]S-NH2 (staple 1-4, 4-11) [I-1172] | 45 | 45 | –
23 | Ac-[αAllylPro]D[tBuAla][B5(18)]D[TfeGA]AKFN[PyrS2″][Phe(2-Cl)][Bta]Q-NH2 (staple 1-4, 4-11) [I-1006] | – | – | EC50 [5]: 5 nM; IC50 [6]: 5 nM
24 | Ac-[αAllylPro]D[tBuAla][B5(4)]DTAAFL[PyrS2″][3Thi][Bta]Q-NH2 (staple 1-4, 4-11) [I-1167] | 34 | 34 | –
25 | Ac-[αAllylPro]D[tBuAla][B5(4)]DFAAFL[PyrS2″][3Thi][Bta]Q-NH2 (staple 1-4, 4-11) [I-1441] | 327 | – | EC50 [3]: 327 nM
26 | Ac-[αAllylPro]D[tBuAla][B5(25)]D[EtGA]AAFS[PyrS2″][3Thi][Bta]Q-NH2 (staple 1-4, 4-11; not fully specified; printed as Ac-PL3-Asp-Npg-B5-Asp-EtGA-Ala-Ala-Phe-Ser-PyrS2-3Thi-BztA-Gln-NH2) [I-967] | – | – | IC50 [7]: 1740 nM; EC50 [8]: 1740 nM
27 | Ac-[αAllylPro]DI[B5(4)]DEAA[2Thi]Q[S8]F[Bta]Q-NH2 (staple 1-4, 4-11) [I-485] | – | – | NanoBRET Abs IC50 [9]: 11300 nM; EC50 [10]: 34 nM; IC50 [11]: 34 nM
28 | Ac-[αAllylPro]D[tBuAla][B5(23)]NNAAFN[PyrS2][3Thi][Bta]Q-NH2 (staple 1-4, 4-11) [I-1555] | – | – | IC50 [5]: 180 nM
29 | Ac-[αAllylPro]D[tBuAla][B5(5)][3Thi][TfeGA]AAFN[PyrS2″]D[Bta]Q-NH2 (staple 1-4, 4-11) [I-1001] | – | – | EC50 [5]: 5530 nM; IC50 [6]: 7220 nM
30 | Ac-[αAllylPro]D[hLeu][B5(15)]DEAAF[hSer][S8]F[Bta]Q-NH2 (staple 1-4, 4-11; not fully specified; printed as Ac-PL3-Asp-Hleu-B5-Asp-Glu-Ala-Ala-Phe-Hse-S8-Phe-BztA-Gln-NH2) [I-1537] | – | – | IC50 [5]: 31 nM
31 | Ac-[αAllylPro]D[tBuAla][B5(18)]DDAAFT[PyrS2″][Phe(2-Cl)][Bta]Q-NH2 (staple 1-4, 4-11) [I-1013] | – | – | EC50 [5]: 8 nM; IC50 [6]: 8 nM
32 | Ac-[αAllylPro]D[tBuAla][B5(5)]D[TfeGA]AFFN[PyrS2″][Phe(2-Cl)][Bta]Q-NH2 (staple 1-4, 4-11) [I-1003] | – | – | EC50 [5]: 38 nM; IC50 [6]: 38 nM

— US20240116985A1, “STAPLED PEPTIDES AND METHODS THEREOF” (priority 2020, published 2024)
